Data on one substance can be found in PMC3663845.

The test addresses active (cleaved) presenilin of γ-secretase, marked at the active site by the inhibitor GTB (mouse (endogenous in primary hippocampal neurons)). As to the kind of experiment: proximity ligation; in situ PLA with 200 nM GTB (photoreactive biotinylated γ-secretase inhibitor, UV-irradiated, probed with streptavidin-oligonucleotide PLUS) in place of the PS antibody and mouse nicastrin-CT antibody (anti-mouse MINUS probe); fixed, 0.4% CHAPSO-permeabilised mouse primary hippocampal neurons; 10 µM L-685,458 as competitor of GTB in the control.

Take “nicastrin (from UniProt P57716 28-708) (natural protein)”: the PLA signals per cell is 214 signals/cell, the fold increase of PLA signals over the sum of the negative controls (first way of calculating) is 4.5 fold and the fold increase of PLA signals over the sum of the negative controls (second way of calculating) is 4.5 fold.
